# In patent US20260098075A1:
# B1: R12 CAR with Spacer 21 (protein)
# chain: QEQLVESGGRLVTPGGSLTLSCKASGFDFSAYYMSWVRQAPGKGLEWIATIYPSSGKTYYATWVNGRFTISSDNAQNTVDLQMNSLTAADRATYFCARDSYADDGALFNIWGPGTLVTISSGGGGSGGGGSGGGGSELVLTQSPSVSAALGSPAKITCTLSSAHKTDTIDWYQQLQGEAPRYLMQVQSDGSYTKRPGVPDRFSGSSSGADRYLIIPSVQADDEADYYCGADYIGGYVFGGGTQLTVTGGGGSGVPCPVPPMFWVLVVVGGVLACYSLLVTVAFIIFWVKRGRKKLLYIFKQPFMRPVQTTQEEDGCSCRFPEEEEGGCELRVKFSRSADAPAYQQGQNQLYNELNLGRREEYDVLDKRRGRDPEMGGKPRRKNPQEGLYNELQKDKMAEAYSEIGMKGERRRGKGHDGLYQGLSTATKDTYDALHMQALPPR
# Molecular target: human ROR1 (tyrosine-protein kinase transmembrane receptor ROR1) (human), Q01973
# Assay: cell-based or functional assay
# human ROR1 (tyrosine-protein kinase transmembrane receptor ROR1) (human), Q01973, sequence (Q01973 30-937): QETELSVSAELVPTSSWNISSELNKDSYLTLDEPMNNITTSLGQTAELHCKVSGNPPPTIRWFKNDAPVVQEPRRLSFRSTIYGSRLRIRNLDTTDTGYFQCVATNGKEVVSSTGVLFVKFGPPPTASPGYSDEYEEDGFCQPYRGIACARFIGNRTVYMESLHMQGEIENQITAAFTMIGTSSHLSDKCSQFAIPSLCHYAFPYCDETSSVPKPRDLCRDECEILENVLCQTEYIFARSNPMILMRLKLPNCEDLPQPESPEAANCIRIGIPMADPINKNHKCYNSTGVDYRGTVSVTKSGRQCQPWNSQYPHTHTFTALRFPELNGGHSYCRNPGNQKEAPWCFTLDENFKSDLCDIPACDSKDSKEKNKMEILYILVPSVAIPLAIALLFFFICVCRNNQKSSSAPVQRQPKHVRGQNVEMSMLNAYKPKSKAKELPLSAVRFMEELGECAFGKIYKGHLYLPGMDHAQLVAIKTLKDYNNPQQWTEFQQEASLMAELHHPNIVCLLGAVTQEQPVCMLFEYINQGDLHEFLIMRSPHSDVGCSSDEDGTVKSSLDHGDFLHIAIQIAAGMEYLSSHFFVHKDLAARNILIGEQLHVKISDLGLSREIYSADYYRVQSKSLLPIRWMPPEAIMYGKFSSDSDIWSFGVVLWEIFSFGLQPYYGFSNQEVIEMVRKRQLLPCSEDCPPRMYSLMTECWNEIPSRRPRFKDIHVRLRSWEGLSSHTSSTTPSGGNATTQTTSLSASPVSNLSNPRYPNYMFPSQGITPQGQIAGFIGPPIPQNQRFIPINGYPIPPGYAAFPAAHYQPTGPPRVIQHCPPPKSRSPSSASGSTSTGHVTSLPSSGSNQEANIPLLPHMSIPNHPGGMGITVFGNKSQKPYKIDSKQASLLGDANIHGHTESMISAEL
binder,measurement,value
B1,"A549 IFNg, donor 2735",14100
same,"A549 IFNg, donor 5018",5000
same,"A549 IL-2, donor 2735",7
same,"A549 IL-2, donor 5018",8
same,"A549 normalized AUC, donor 2735",66.3
same,"A549 normalized AUC, donor 5018",85
same,"H1975 IFNg, donor 2735",23200
same,"H1975 IFNg, donor 5018",2650
same,"H1975 IL-2, donor 2735",26
same,"H1975 IL-2, donor 5018",7
same,"H1975 normalized AUC, donor 2735",61.5
same,"H1975 normalized AUC, donor 5018",77.4
